From article PMC4521160, “Glass is a Viable Substrate for Precision Force Microscopy of Membrane Proteins” (Scientific Reports, 2015) come the findings set out here.

The target in experiment [1] is T1, bacteriorhodopsin from Halobacterium salinarum (Halobacterium salinarum), P02945.
T1 chain: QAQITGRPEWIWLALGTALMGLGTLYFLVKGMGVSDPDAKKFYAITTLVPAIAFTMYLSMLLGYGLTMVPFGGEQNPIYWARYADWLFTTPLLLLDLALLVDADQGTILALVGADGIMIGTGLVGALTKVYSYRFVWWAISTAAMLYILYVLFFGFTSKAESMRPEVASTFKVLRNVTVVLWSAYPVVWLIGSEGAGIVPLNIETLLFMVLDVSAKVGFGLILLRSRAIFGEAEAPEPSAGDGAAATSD
As to the kind of experiment: atomic force microscopy (AFM) imaging; purple membrane on KOH-treated glass (20 mM Tris pH ~8.5, 200 mM KCl, 20 mM MgCl2) and on mica (10 mM Tris pH ~7.6, 150 mM KCl); tapping mode, ~30 °C; correlation averaging. The following applies: remark: other sources report otherwise.

Another experiment has as its target T2, ATPase SecA (E. coli, UniProt P10408 1-901).
T2 construct: SecA, ATPase of the general secretory system of E. coli; SecA was added for coassembly 'at 5 μM dimer'; Zinc is kept in SecA by the purification; also called peripheral membrane protein SecA; source: purified from the supernatant of lysed cells (QAE column)
As to the kind of experiment: atomic force microscopy (AFM) imaging; proteoliposomes of coassembled SecYEG and SecA deposited on KOH-treated glass (height histograms also on mica); tapping mode, ~30 °C, 10 mM HEPES pH 8.0, 200 mM KAc, 5 mM MgAc2; single translocons tracked for >1800 s. The following applies: both partners purified.

T2 sequence (P10408 whole entry): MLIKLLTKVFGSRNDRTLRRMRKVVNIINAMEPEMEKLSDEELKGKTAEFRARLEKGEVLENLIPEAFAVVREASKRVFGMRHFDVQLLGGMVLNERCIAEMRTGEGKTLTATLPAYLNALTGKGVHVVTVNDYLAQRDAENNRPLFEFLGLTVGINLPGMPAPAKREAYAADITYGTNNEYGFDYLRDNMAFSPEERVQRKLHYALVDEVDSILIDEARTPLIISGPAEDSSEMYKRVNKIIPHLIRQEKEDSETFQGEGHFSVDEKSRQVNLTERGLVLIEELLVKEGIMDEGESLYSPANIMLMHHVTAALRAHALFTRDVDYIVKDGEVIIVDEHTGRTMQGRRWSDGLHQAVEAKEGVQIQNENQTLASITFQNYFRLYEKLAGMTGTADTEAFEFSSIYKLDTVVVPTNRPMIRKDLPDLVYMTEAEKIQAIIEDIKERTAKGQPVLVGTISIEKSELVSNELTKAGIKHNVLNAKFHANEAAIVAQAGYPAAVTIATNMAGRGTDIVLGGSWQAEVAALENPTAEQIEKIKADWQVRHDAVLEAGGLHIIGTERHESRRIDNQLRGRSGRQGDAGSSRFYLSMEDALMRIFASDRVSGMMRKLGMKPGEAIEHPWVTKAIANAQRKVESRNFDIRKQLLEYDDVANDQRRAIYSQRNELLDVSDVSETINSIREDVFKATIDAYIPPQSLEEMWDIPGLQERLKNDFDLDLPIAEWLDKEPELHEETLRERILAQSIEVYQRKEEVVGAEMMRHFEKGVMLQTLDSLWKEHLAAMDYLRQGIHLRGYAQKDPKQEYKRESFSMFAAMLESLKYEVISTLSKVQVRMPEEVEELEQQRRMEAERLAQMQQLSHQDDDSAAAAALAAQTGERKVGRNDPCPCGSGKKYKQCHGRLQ

B1: bacteriorhodopsin from Halobacterium salinarum, P02945 14-262 (natural protein)
chain: T1 chain
modifications: here or on the partner: retinal chromophore; retinal chromophore
By stoichiometry N is commonly meant the number of molecules, sites or subunits per partner or assembly. Molecule B1 had a stoichiometry N in experiment [1] of 3.

B2: SecYEG translocon from Escherichia coli (complex, E. coli)
chain 1: MAKQPGLDFQSAKGGLGELKRRLLFVIGALIVFRIGSFIPIPGIDAAVLAKLLEQQRGTIIEMFNMFSGGALSRASIFALGIMPYISASIIIQLLTVVHPTLAEIKKEGESGRRKISQYTRYGTLVLAIFQSIGIATGLPNMPGMQGLVINPGFAFYFTAVVSLVTGTMFLMWLGEQITERGIGNGISIIIFAGIVAGLPPAIAHTIEQARQGDLHFLVLLLVAVLVFAVTFFVVFVERGQRRIVVNYAKRQQGRRVYAAQSTHLPLKVNMAGVIPAIFASSIILFPATIASWFGGGTGWNWLTTISLYLQPGQPLYVLLYASAIIFFSFFYTALVFNPRETADNLKKSGAFVPGIRPGEQTAKYIDKVMTRLTLVGALYITFISLIPEFMRDAMKVPFYFGGTSLLIVVVVIMDFMAQVQTLMMSSQYESALKKANLKGYGR
chain 2: MSANTEAQGSGRGLEAMKWVVVVALLLVAIVGNYLYRDIMLPLRALAVVILIAAAGGVALLTTKGKATVAFAREARTEVRKVIWPTRQETLHTTLIVAAVTAVMSLILWGLDGILVRLVSFITGLRF
chain 3: MYEALLVVFLIVAIGLVGLIMLQQGKGADMGASFGAGASATLFGSSGSGNFMTRMTALLATLFFIISLVLGNINSNKTNKGSEWENLSAPAKTEQTQPAAPAKPTSDIPN
notes: SecY of the E. coli translocon SecYEG, with C329S and C385S; SecE of the E. coli translocon SecYEG; SecG of the E. coli translocon SecYEG; In the assay the complex stood in a lipid bilayer supported by glass (or mica); also called bacterial translocon; copies: + +
As to B2, the binding result in the experiment with ATPase SecA is given as “binds”.
